Values belong to the binder of their own block, whether it stands above or below them.
What was measured:
[1] = target: T1, mouse ICOS-mFc (Chimerigen) (mouse, UniProt Q9WVS0 21-141, limits assumed); experiment: HTRF neutralisation of Alexa 647 mouse B7-H2 binding to mouse ICOS-mFc; human IgG4.PE; mean, n = 3
T1 construct: also called mouse ICOS receptor; mouse ICOS Receptor; not shown: mouse Fc of the bought construct
T1 sequence: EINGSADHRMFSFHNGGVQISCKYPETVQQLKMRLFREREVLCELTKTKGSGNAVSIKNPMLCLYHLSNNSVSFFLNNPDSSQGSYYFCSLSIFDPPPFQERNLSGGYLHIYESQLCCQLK
Method: (§1) 5 μl of ICOS receptor (human ICOS-mFc, 20 nM, 5 nM final or mouse ICOS-mFc 4 nM, 1 nM final (Chimerigen)) was added to required wells. Plate was incubated for 1 hr at room temperature (RT).
(§2) Finally, 5 μl of anti-mouse IgG donor mAb (Southern Biotech) labelled with europium cryptate (Cis Bio), 40 nM, 10 nM final was added to each well and the assay was left in the dark at RT to incubate for a further 2 hours. After incubation, assay was read on Envision plate reader (Perkin Elmer) using a standard HTRF protocol. […] Titration curves and IC50 values [M] were plotted using Graphpad (Prism). IC50 values were calculated by first transforming the data using equation X=Log(X). The transformed data was then fitted using nonlinear regression, using fitting algorithm, log (inhibitor) vs. response—variable slope (four parameters).

[2] = target: T2, human ICOS-mFc (Chimerigen) (human, UniProt Q9Y6W8 21-140); experiment: HTRF neutralisation of Alexa 647 human B7-H2 binding to human ICOS-mFc; human IgG4.PE; mean, n = 3
T2 construct: also called human ICOS receptor; human ICOS Receptor; not shown: mouse Fc of the bought construct
T2 sequence: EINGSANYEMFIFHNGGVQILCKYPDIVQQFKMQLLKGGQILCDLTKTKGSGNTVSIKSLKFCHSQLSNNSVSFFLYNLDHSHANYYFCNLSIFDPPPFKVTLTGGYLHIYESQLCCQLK
Method: as §1, §2

[3] = target: T2, human ICOS-mFc (Chimerigen); experiment: HTRF neutralisation of Alexa 647 human B7-H2 binding to human ICOS-mFc; human IgG4.PE table; n = 1
Method: as §1, §2

IC50 [1]: 30 nM
IC50 [2]: 161 nM
B1: STIM004 human IgG4.PE (antibody, V domains shown)
VH: EVQLVESGGGVVRPGGSLRLSCAASGLTFDDYGMSWVRQVPGKGLEWVSGINWNGDNTDYADSVKGRFTISRDNAKNSLYLQMNSLRAEDTALYYCARDYYGSGSYYNVPFDYWGQGTLVTVSS
VL: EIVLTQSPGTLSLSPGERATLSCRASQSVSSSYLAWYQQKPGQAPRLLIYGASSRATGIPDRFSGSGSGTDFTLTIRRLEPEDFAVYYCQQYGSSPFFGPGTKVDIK
notes: Human IgG4.PE (null-effector) format

IC50 [3]: 0.8 nM
B2: STIM006 human IgG4.PE (antibody, V domains shown)
VH: QVQLVESGGGLVKPGGSLRLSCAASGFTFSDYFMSWIRQAPGKGLEWISYISSSGSTIYYADSVRGRFTISRDNAKYSLYLQMNSLRSEDTAVYYCARDHYDGSGIYPLYYYYGLDVWGQGTTVTVSS
VL: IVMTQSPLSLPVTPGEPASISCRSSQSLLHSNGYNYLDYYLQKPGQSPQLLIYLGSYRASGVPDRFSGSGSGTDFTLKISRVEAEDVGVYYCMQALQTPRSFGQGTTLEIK

— patent US20180066058A1 (published 2018)
